Results as given in the RNAGym collection of RNA variant scans (doi:10.1073/pnas.2313332121).
Fewer inactive variants are shown than the library holds.

B1: TPR 5TU (parent)
chain: GGAUCUUCUCGAUCUAACAAAAAAGACAAAUCUGCCACAAAGCUUGAGAGCAUCUUCGGAUGCAGAGGCGGCAGCCUUCGGUGGCGCGAUAGCGCCAACGUUCUCAACUAUGACACGCAAAACGCGUGCUCCGUUGAAUGGAGUUUAUCAUG

Variants of: B1
Assay: polymerase ribozyme fitness, log enrichment relative to wild type (log ratio); higher = more active; in vitro selection for triplet polymerase activity
Outline: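 Frozen incubation at −7 °C formed the core of a single, triplicate in vitro selection round applied to PCR-built, transcribed mutant libraries of each subunit of a heterodimeric triplet polymerase ribozyme. Extended constructs were gel-excised, captured with streptavidin beads and amplified by RT-PCR, and input and output libraries were Illumina-sequenced with a filter of ≥10 input reads and ≥1 read per output. Fitness is the logarithm of genotype enrichment relative to wild-type enrichment, with inverse-variance-weighted replicate averaging, and the logarithm is base 2.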

Variant | polymerase ribozyme fitness (log ratio)
GGAUCUUCUCCAUCUAACAAAAAAGACAAAUCUGGCACAAAGCUUGAGAGCUUCUUCGGAUGAAGAGGCGGCAGCCUUCGGUGGCGCGAUAGCACCAACGUUCUCAACUAUGACACGCAAAACGCGUGCUUCGUUGAAUGGAGUUUAUCAUG [G11C C35G A52U C63A G94A C131U] | ≤ -4.2
GGAUCUUCUCCAUCUAACAAAAAAGACAAAUCUGCCAAAAAGCUUGAGAGCAUCUUCGAAUGCAGAGGCGGCAGCCUUCGGUGGCGCGAUAGCGCCAACGUUCUCAACUAUGACACGCAAAACGGGUGCUCCGUUGAAUGGAGUUUAUCAUG [G11C C38A G59A C125G] | -2.58
GGAUCUUCUCCAUCUAACAUAAAAGACAAAUCUGCCACAUAGCUUGAGAGCAUCUUCGGAUGCAGAGGCGGCAGCCUUCGGGAGCGCGAUAGAGCCAACGUUCUCAAAUAUGACACGCAAAACGCGUGCUCCGUUGAAUGGAGUUUAUCAUG [G11C A20U A40U U82G G83A C93A C108A] | ≤ -4.2
GGAUCUUCUCCAUCUAACAAAAUAGACAAAUCUGCCACAAAGCUUGACAGCAUCUUCGGAUGCAGAGGCGGCAGCCUUAGGGGGCGCGAUAGCUCCAACGUUCUCAACUAUGACACGCAAAACGCGUGCUCCGUUGAAUGGUGUUUAUCAUG [G11C A23U G48C C79A U82G G94U A142U] | ≤ -4.2
GGAUCUUCUCCAUCUAACAAAAAAGACAAAUCUGCCACAAAGCUUGAGAGCAUUUUCGGAUGCAGAGGCGGCAGCCUUCGGUGGUGCGAUAGCGCCAACGUUCUCAACUAUGACGCGCAAAACGCGUGCUCCGUUGAAUGGAGUUUAUCAUG [G11C C54U C85U A115G] | -3.49
GGAUCUUCUCCAUCUAACAAAAAAGAUAAAUCUGCCACAAAGCUUGAGAGCAUCUUCGGAUGCAGAGGCGGCAGCCUUCGGUGGCGCGAUAUCGCCAACGUUCUCAACUAUGACACGCAAAACGCGUGCUCCGUUGAAUGGAGUUUAUCAUG [G11C C27U G92U] | -2.73
GGAUCUUCUCCAUCUAACAAAAUAGACAAAUCUGCCACAAAGCUUGAGACCAUGUUUGGAUGCAGAGGCGGCAGCCUUCGGUGGCGCGGUAGCGCCAACGUUCUCAACUAUGACAAGCAAAACCCGUGCUCCGUUGAAAGGAGUUUAUCAUG [G11C A23U G50C C54G C57U A89G C116A G124C U139A] | ≤ -4.2
GGAUCUUCUCCAUCUAACAAAAAAGACAAUUCUGCCACAAAGCUUGAGAGCAUCUUCGGAUGCAGAGGCGGCAGCCUUCGGUGGCGCGAUAGCGACAACGUUCUCAAGUAUGACACGCAAAACGCGUGCUCCGUUGAAUGGAGUUUAACAUG [G11C A30U C95A C108G U148A] | ≤ -4.2
GGAUCUUCUCCAUCUAACAAAAAAGACAAAUGUCCCACAAAGCUUGAGAGCAUCUUCGGAUGCAGAGGCGGCAGCCUUCGGUGGCGCCAUAGCGCCAACGUUCUCGAAUUUGACACGCAAAACGCGUGCUCCGUUGAAUGGAGUUUAUGAUG [G11C C32G G34C G88C A106G C108A A110U C149G] | ≤ -4.2
GGAUCUUCUCCAUCUAACAAAAAAGACAAAUCUGCCACAACGCUUGAGAGCAUCUUCGGAUGCAGAGGCGGCAGCCUUCGGUGGCGCGAUAGCGACAACGUUCUCAACUAUGACACGCAAAACGCGUGCUCCGUUGAAUGGAGUUGAUCAUG [G11C A41C C95A U146G] | -3.34
GGAUCUUCUCCAUCUAACAGAAAAGACAAAUCUUCCACAAAGCUUGAGAGCAUCUUCGGAUGCAGAGGCGGCAGCCUUCGGUGGCGCGAUAGCGCCAACGUUCUCAACUAUGACACGCAAAACGCGUGCUCCGUUGUAUGGAGUUUAUCAUG [G11C A20G G34U A137U] | ≤ -4.2
GGAUCUUCUCCAUCUAACAAAAAAGACAAAUCUGCCACAAAGCUUGAGCGCAGCUUCGGAUGCAGAGGCGGCAGCCUUCGGUGGCGCGAUAGCGCCAACGUUCUCAACUAUGACACGCAAAACGCGUGCUCCGUUGAAUGAAGUUUAUCAUG [G11C A49C U53G G141A] | ≤ -4.2
GGAUCUUCUCCAUCUAACAAAAAAGACAAAUUUGCCACAAAGCUUGAGAGCAUCUUCGGAUGCAGAGGAGGCAGCCUUCGGUGGCGCGAUAGCGCCAACGUUCUCAACUAUGACACGCAAGACGCGUGCUCCGUUGAAUGGAGUUUAUCAUG [G11C C32U C69A A121G] | -4.12
GGAUCUUCUCCAUCUAACAAAAAAGACAAAUCUGCCAUAAAGCUUGAGAGCAUCUUCGGAUGCAGAGGCGGCAGCUUGCGGUGGCGCGAUAGCGCCGACGUUCUCAACUAUGACACGCAAAACUCGUGCUCCGUUGAAUGGAGUUUAUCAUG [G11C C38U C76U U78G A97G G124U] | ≤ -4.2
GGAUCUUCUCCAUCUAACAAAAAAGACAAAUCUGCCACAAAGCUUGAGAGCAUCUUGGGAUGCAGAGGCGGCAGCCUUCGGAUGCGCGAUAGCGCCAACGUUCUCAACUAUGACACGCAAAACGCGUGCUCCGUUGAAUGUAGUUUAUCAUG [G11C C57G U82A G83U G141U] | -2.65
GGAUCUUCUCCAUCUAACGAAAAAGACAAAUCUGCCACAAAGCUUGAGAGCGUCUUCGGAUGCAGAGCCGGCAGCCUUCGGUGGCGCGAUAGCGCCGACGUUCUCAACUAUGACACGCAAAACGCGUGCUCAGCUGAAUGGAGAUUAUCAUG [G11C A19G A52G G68C A97G C132A U134C U144A] | ≤ -4.2
GGAUCUUCUCCAUCUAACAAAAAAGACAAAUCUGUCACAAAGCUUGAGAGCAUCUUCGGAUGCAGAGGCGGCAGCCUUCGGUGGCGCGAUAGCGCCAACGUUCUCAACUAUGACACGCAAAACGCGUGCUCCGUUGAAUGGAGUUUAUCAUG [G11C C35U] | -2.11
GGAUCUUCUCCAUAUGACAAAAAAGACAAAUCUGCCACAAAGCUUGAGAGCAUCUUCGGAUGCAGAGGCGGCAGCCUUCGGUGGCGUGAUAGCGCCAACGUUCUCAACUAUGACACGCAAAACGCGUGCUCCGUUGAAUGGAGUUUAUCAUG [G11C C14A A16G C87U] | ≤ -4.2
GGAUCUUCUCCAUCUAACAAAACAGACAAAUCUGCCACAAAGCUUGAGAGCAUCUUCAGAUGCAGAGGCGGCAGCCUUCGCUGGCGAGAUAGCGCCAACGUUCUCAACUAUGACACGCAAAACGCGUGCUCCGUUGAUUGGAGUUUAUCAUG [G11C A23C G58A G81C C87A A138U] | ≤ -4.2
